# Key:
# macrophages [1] = assay: [^18F]fluoro-PEG-folate macrophage PET-CT imaging of arthritic knees; format: in vivo; settings: PET scan at day 40; one rat per group
# Source text: The macrophage PET tracer [^18F]fluoro-PEG-folate was synthesized, with a radiochemical purity of >96.5% and mean specific activity of 27.6±3.5 GBq/μmol. Untreated and 4× AP-treated arthritic were anesthetized using inhalation anaesthetics (isoflurane 2-2.5% and oxygen […]). The tail vein was cannulated with a poly-urethane 3 French cannula (0.7 mm×19 mm, BD Angiocath, Breda, The Netherlands). During PET-CT (Mediso nanoPET-CT, Budapest, Hungary) rats were place in an integrated heating bed (˜35° C.) while monitoring respiratory function. Computed tomography (CT) scan was performed for 5 min, followed by tracer administration (10.7±1.8 MBq) at the start of a dynamic PET scan of 60 min. PET data were normalized, and corrected for scatter, randoms, attenuation, decay and dead time. The list mode PET data were rebinned in 19 successive frames (4×5, 4×10, 2×30, 3×60, 2×300, 3×600 and 1×900 s), which were reconstructed using an iterative 3D Poisson ordered-subsets expectation-maximization algorithm with 4 iterations and 6 subsets. […] The CT and PET images were superimposed for drawing the regions of interest (ROI). […] TACs were expressed as standardized uptake values (SUV), i.e. mean ROI radioactivity concentration normalized to injected dose and body weight.
# macrophages [2] = system: macrophages
# Description: At the end of the treatment period, arthritic rats receiving 4× AP, 4× AP/low dose MTX, 4× AP/high dose MTX treatment, and untreated rats, were administered with [^18F]fluoro-PEG-folate tracer. Sixty minutes after tracer administration, rats were sacrificed. Low and high dose MTX treated arthritic rats were sacrificed without tracer administration. Upon sacrificing, all rats were excised and knees, blood and various internal organs were collected, rinsed, dipped dry, weighed and the amount of radioactivity determined using an LKB 1282 Compugamma CS gamma counter (LKB, Wallac, Turku, Finland). Results for tracer uptake in the various tissues were expressed as percentage of the injected dose per gram tissue (%ID/g).
# [3] = system: ED1-, ED2- and FRβ-positive macrophages in liver and spleen; assay: Macrophage infiltration in liver and spleen of arthritic rats (ED1/ED2 immunohistochemistry, FRβ immunofluorescence); format: in vivo, rat
# Description: The arthritic and contralateral knees from all rats were dissected in toto and fixed for 7 days at 4° C. in 10% freshly made paraformaldehyde in PBS with 2% sucrose (pH=7.3) prior to decalcification in osteosoft (101728, Merck, Germany) for ˜2.5 weeks at room temperature. Thereafter, knees were embedded in paraffin. Sections of 5 μm were cut through the centre of the joint in longitudinal direction and stained with haematoxylin and eosin (HE) to assess the degree of inflammation in synovial tissue. Liver and spleen sections from all rats were dissected and fixed in 4% paraformaldehyde for 24 h before embedding in paraffin. Sections of 5 μm were cut and stained initially with HE and then for macrophages Staining for macrophages with ED1 (homologous to human CD68), and ED2 (homologous to human CD163, a marker for M2 anti-inflammatory macrophages), or isotype control antibody was performed. Images were captured using a Leica 4000B microscope and Leica digital camera DC500 (Microsystems B. V. Rijswijk, The Netherlands).
# Liver and spleen tissues collected at the end of the study were snap frozen in liquid nitrogen and stored at −80° C. Tissues were embedded in appropriate media (OCT; SKU4583, Tissue-Tek, Netherlands), cut using a cryotome cryostat (−20° C.) (Leica, The Netherlands) and placed on Superfrost (4951PLUS4, ThermoFisher, The Netherlands) glass slides for immunofluorescence (IF) staining Sections of 8 μm were cut and stained with haematoxylin and eosin. […]
# Stained slides of liver and spleen sections of arthritic rats and AP-treated arthritic rats were blinded and counted by two independent observers for FRβ, ED1- and ED2-positive synovial macrophages. For quantification, representative areas of liver and spleen sections were divided into 4 regions, each representing a central pulp and vein, respectively. The FRβ, ED1- and ED2-positive macrophages were counted at 400× magnification as described above. […] As a reference liver and spleen sections of healthy rats were analyzed as control.
# [4] = 4x AP, 60 min post tracer injection
# [5] = arthritic rats, 60 min after tracer
molecule,measurement,setting,value
"AP: human recombinant placenta alkaline phosphatase (hRESCAP; TNO, Zeist), an ectophosphatase (protein, UniProt P05187 23-506, looked up) Alkaline phosphatase, …: IIPVEEENPDFWNREAAEALGAAKKLQPAQTAAKNLIIFLGDGMGVSTVTAARILKGQKKDKLGPEIPLAMDRFPYVALSKTYNVDKHVPDSGATATAYLCGVKGNFQTIGLSAAARFNQCNTTRGNEVISVMNRAKKAGKSVGVVTTTRVQHASPAGTYAHTVNRNWYSDADVPASARQEGCQDIATQLISNMDIDVILGGGRKYMFRMGTPDPEYPDDYSQGGTRLDGKNLVQEWLAKRQGARYVWNRTELMQASLDPSVTHLMGLFEPGDMKYEIHRDSTLDPSLMEMTEAALRLLSRNPRGFFLFVEGGRIDHGHHESRAYRALTETIMFDDAIERAGQLTSEEDTLSLVTADHSHVFSFGGYPLRGSSIFGLAPGKARDRKAYTVLLYGNGPGYVLKDGARPDVTESESGSPEYRQQSAVPLDEETHAGEDVAVFARGPQAHLVHGVQEQTFIAHVMAFAACLEPYTACDLAPPAGTTD",increased [^18F]fluoro-PEG-folate uptake (SUV) in arthritic knee of the untreated rat compared to the 4× AP-treated rat,macrophages [1],1.5 fold
same,"[^18F]fluoro-PEG-folate uptake, Heart, Avg",macrophages [2]; [4],0.117 % ID/g
same,"[^18F]fluoro-PEG-folate uptake, Liver, Avg",macrophages [2]; [4],0.151 % ID/g
same,"[^18F]fluoro-PEG-folate uptake, Lung, Avg",macrophages [2]; [4],0.111 % ID/g
same,"[^18F]fluoro-PEG-folate uptake, Spleen, Avg",macrophages [2]; [4],0.779 % ID/g
same,[^18F]fluoro-PEG-folate uptake in kidney and intestine (in words),macrophages [2]; [5],not impacted
same,"[^18F]fluoro-PEG-folate uptake in lung, heart, liver and spleen (in words)",macrophages [2]; [5],reductions
same,reduction of both ED1- and ED2-positive infiltrating macrophages in spleen,[3]; AP-treated vs saline-treated arthritic rats,~30%
same,decrease of both ED1- and ED2-positive infiltrating macrophages in liver,"[3]; AP-treated vs saline-treated arthritic rats, p<0.001",~50%
same,FRβ-positive macrophages in liver and spleen,"[3]; after AP treatment, arthritic rats",lowered number

# Reference: patent US11103562B2, “Composition comprising alkaline phosphatase for use in the treatment of arthritides” (AMRIF BV, priority 2017, dated 2021)
